Results on one substance are retold here after patent US20250326826A1.

Holding throughout (assay): cell-based or functional assay
Assay [1] concerns the target Human VEGF (dendritic cell assay) (human) (UniProt P15692).
For assay [2], the target named is VEGF (soluble stimulus added to cell cultures).
Assay [3] has as its target bFGF (soluble stimulus added to cell cultures).

Chain of Human VEGF (dendritic cell assay) (human) (P15692 other isoform, or with tags, fused parts or gaps limits assumed): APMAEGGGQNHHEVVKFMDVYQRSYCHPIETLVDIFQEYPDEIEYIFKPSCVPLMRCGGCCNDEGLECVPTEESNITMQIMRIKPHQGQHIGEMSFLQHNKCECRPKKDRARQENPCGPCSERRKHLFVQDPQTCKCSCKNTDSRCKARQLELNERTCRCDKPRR

In assay [1], Nb-Neg (VHH) gave a CD86 (MFI) on dendritic cells +VEGF +LPS, VHH 1 µg/mL of 1980 MFI; a CD86 (MFI) on dendritic cells +VEGF +LPS, VHH 5 µg/mL of 2050 MFI; a CD86 (MFI) on dendritic cells +VEGF +LPS, VHH 10 µg/mL of 2000 MFI; an MHCII (MFI) on dendritic cells +VEGF +LPS, VHH 1 µg/mL of 5210 MFI. Besides, in assay [1], the MHCII (MFI) on dendritic cells +VEGF +LPS, VHH 5 µg/mL amounted to 5140 MFI and the MHCII (MFI) on dendritic cells +VEGF +LPS, VHH 10 µg/mL was 4910 MFI. In assay [2], this substance registered an IC50, proliferation of HDMEC cells +VEGF (5 ng/ml) greater than 6 µM; a PD1 expression (%) in CD8+ cells treated with VEGF, VHH 1 µg/mL of 68%; a PD1 expression (%) in CD8+ cells treated with VEGF, VHH 5 µg/mL of 67%; a PD1 expression (%) in CD8+ cells treated with VEGF, VHH 10 µg/mL of 65%. For the same substance, the average of nodes of the HDMEC network on Matrigel, VEGF 100 ng/mL, VHH 150 nM (nodes per field) in assay [2] was 41. In addition, in assay [3], the IC50, bFGF-induced proliferation of 3T3A31 cells was greater than 250; the IC50, bFGF-induced proliferation of A549 cells is greater than 250; the IC50, bFGF-induced proliferation of B16F10 cells is greater than 250; the IC50, bFGF-induced proliferation of NIH3T3 cells was greater than 250. For the same substance, in assay [3], the IC50, proliferation of HDMEC cells +bFGF (10 ng/ml) was greater than 6 µM and the average of nodes of the HDMEC network on Matrigel, bFGF 10 ng/mL, VHH 150 nM (nodes per field) is 40.
